Experiment: Standard protocol for determination of kcat and KM (continuous spectrophotometric assay, Acetyl CoA hydrolysis at 235 nm)
Format: biochemical
Conditions: purified protein, about 23° C., 0.2 mM acetyl CoA; for Kcat: 20 mM HEPES pH 6.8, 10% ethylene glycol; for Km: pH 6.8, glyphosate 0.125 to 10 mM
How it was run: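 KM from initial rates over 0.125–10 mM glyphosate, fitted by Lineweaver-Burke transformation of Michaelis-Menten; kcat/KM computed as kcat divided by KM. Continuous spectrophotometric read of acetyl-CoA hydrolysis at 235 nm.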

Molecule	Kcat [s⁻¹]	Km [µM]
SEQ ID NO: 467: GAT polypeptide (protein, 1_1H2, GAT polypeptide) MIEVKPINAEDTYELRHRILRPNQPLEACMYESDLLRGSFHLGGFYRGKLISIASFHQAEHSELEGQKQYQLRGMATLEGFREQKAGSSLIRHAEEILRKRGADLLWCNARTTAAGYYKKLGFSEQGEIFDTPPVGPHILMYKRIT	2.73	440
SEQ ID NO: 469: GAT polypeptide (protein, 1_2A12, GAT polypeptide) MIEVKPINAEDTYELRHRILRPNQPIEACMYESDLLRGSFHLGGFYRGKLISIASFHQAEQSELEGQKQYQLRGMATLEGYRDQKAGSTLIKHAEEILRKKGADLLWCNARTSAAGYYKRLGFSEQGEIFDTPPVGPHILMYKRLT	3.82	1300
SEQ ID NO: 470: GAT polypeptide (protein, 1_2B6, GAT polypeptide) MIEVKPINAEETYELRHKILRPNQPLEACMYETDLLRGSFHLGGFYRGKLISIASFHQAEHSELEGQKQYQLRGMATLEGFRDQKAGSSLIKHAEEILRKRGADLLWCNARTSASGYYKKLGFSEQGEIFETPPVGPHILMYKRLT	2.3	580
SEQ ID NO: 468: GAT polypeptide (protein, 1_1H5, GAT polypeptide) MIEVKPINAEDTYEIRHRILRPNQPLEACMYESDLLRGSFHLGGFYRGKLISIASFHQAEHSDLEGQKQYQLRGMATLEGYRDQKAGSSLIRHAEQILRKRGADLLWCNARTTAAGYYKRLGFSEQGEVFDTPPVGPHILMYKKLT	1.57	1500
SEQ ID NO: 474: GAT polypeptide (protein, 1_2F8, GAT polypeptide) MLEVKPINAEDTYELRHRILRPNQPLEACMYETDLLRGSFHLGGFYRGKLISIASFHQAEHSELEGQKQYQLRGMATLEGYRDQKAGSSLIRHAEEILRKRGADMLWCNARTTAAGYYKKLGFSEQGEIYDTPPVGPHILMYKKLT	2.68	1900
SEQ ID NO: 473: GAT polypeptide (protein, 1_2D4, GAT polypeptide) MIEVKPINAEDTYELRHRILRPNQPIEACMYESDLLRGSFHLGGFYRGKLISIASFHQAEHSDLQGQKQYQLRGMATLEGYREQKAGSSLIKHAEQLLRKKGADMLWCNARTSAAGYYKRLGFSEHGEIFETPPVGPHILMYKRIT	3.03	1200
SEQ ID NO: 277: GAT polypeptide (protein, 10_2B8, GAT polypeptide) MIEVKPINAEDTYEIRHRILRPNQPLEACKYETDLLGGTFHLGGYYRGKLISIASFHQAEHPELEGQKQYQLRGMATLEEYREQKAGSTLIRHAEELLRKKGADLLWCNARTSASGYYKKLGFSEQGEVYDTPPVGPHILMYKKLT	1.807	1100
SEQ ID NO: 460: GAT polypeptide (protein, 11_3B5, GAT polypeptide) MIEVKPINAEDTYELRHRILRPNQPIEACMFESDLLRGAFHLGGYYRGKLISIASFHQAEHSELQGQKQYQLRGMATLEGYRDQKAGSSLIRHAEQILRKRGADMLWCNARTSASGYYKKLGFSEQGEVFDTPPVGPHILMYKRIT	3.2435	260
SEQ ID NO: 472: GAT polypeptide (protein, 1_2D2, GAT polypeptide) MIEVKPINAEDTYELRHKILRPNQPLEACMYESDLLRSAFHLGGFYRGKLISIASFHKAEHSELQGQKQYQLRGMATLEGYRDQKAGSSLIRHAEEILRKRGADMLWCNARTSAAGYYKRLGFSEQGEVFDTPPVGPHILMYKRIT	2.07	1200
SEQ ID NO: 462: GAT polypeptide (protein, 11_3C3, GAT polypeptide) MIEVKPINAEDTYELRHKILRPNQPIEACMYESDLLRGALHLGGYYRGKLISIASFHQAEHSELQGQKQYQLRGMATLEGYREQKAGSSLIKHAEEILRKRGADLLWCNARTSASGYYKKLGFSEQGEVFDTPPVGPHILMYKRIT	3.567	220
SEQ ID NO: 466: GAT polypeptide (protein, 1_1H1, GAT polypeptide) MIEVKPINAEETYELRHKILRPNQPIEACMYESDLLRGSFHLGGFYRGQLISIASFHKAEHSELQGQKQYQLRGMATLEGFREQKAGSSLIRHAEEILRNKGADLLWCNARTTASGYYKRLGFSEHGEVFETPPVGPHILMYKRIT	4.85	1800
SEQ ID NO: 461: GAT polypeptide (protein, 11_3C12, GAT polypeptide) MIEVKPINAEDTYELRHRILRPNQPLEVCMYETDLLRGAFHLGGFYGGKLISIASFHQAEHPDLQGQKQYQLRGMATLEGYRDQKAGSSLIRHAEQLLRKRGADLLWCNARTSASGYYKKLGFSEQGEIFETPPVGPHILMYKRIT	0.8178	
SEQ ID NO: 465: GAT polypeptide (protein, 1_1G12, GAT polypeptide) MLEVKPINAEDTYELRHRILRPNQPIEVCMYETDLLRGAFHLGGFYGGKLISIASFHQAEHSELQGQKQYQLRGMATLEGYRDQKAGSSLIKHAEEILRKRGADLLWCNARTSASGYYKKLGFSEQGEVFETPPVGPHILMYKRLT	0.9747	
SEQ ID NO: 459: GAT polypeptide (protein, 11_3B1, GAT polypeptide) MLEVKPINAEDTYELRHRILRPNQPIEACMFETDLLRGAFHLGGFYRGKLISIASFHQAEHSDLQGQKQYQLRGMATLEGFREQKAGSTLIRHAEEILRKRGADLLWCNARTSASGYYKRLGFSEQGEIFDTPPVGPHILMYKRLT	3.6662	630
SEQ ID NO: 464: GAT polypeptide (protein, 11_3D6, GAT polypeptide) MIEVKPINAEDTYELRHRILRPNQPIEVCMYETDLLRGAFHLGGFYRGKLISIASFHQAEHSDLQGQKQYQLRGMATLEGYREQKAGSSLIKHAEQILRKRGADLLWCNARTSASGYYKKLGFSEQGEVFDTPPVGPHILMYKRLT	0.922	
SEQ ID NO: 463: GAT polypeptide (protein, 11_3C6, GAT polypeptide) MLEVKPINAEDTYELRHKILRPNQPIEACMFESDLLRGAFHLGGFYGGKLISIASFHQAEHSDLEGQKQYQLRGMATLEGYREQKAGSTLIRHAEEILRKRGADLLWCNARTSASGYYKKLGFSEQGEIFDTPPVGPHILMYKRIT	3.074	210
SEQ ID NO: 471: GAT polypeptide (protein, 1_2C4, GAT polypeptide) MLEVKPINAEETYELRHKILRPNQPIEACMYETDLLRGSFHLGGFYRGQLISIASFHQAEHSDLQGQKQYQLRGMATLEGYREQKAGSTLIKHAEELLRKKGADLLWCNARTTAAGYYKKLGFSEQGEVFDTPPVGPHILMYKKIT	3.22	800

Source: patent publication US8008547B2, “Glyphosate-N-acetyltransferase (GAT) genes” (E.I. duPont de Nemours, priority 2000, dated 2011)
